Key:
human insulin receptor = target: T1, human insulin receptor (Homo sapiens, UniProt P06213); experiment: FACS binding to cells overexpressing human insulin receptor; details: EM164 50-100 nM
T1 construct: expressed in transfected cells; host or cells: 3T3-like cells of IGF-I receptor deficient mice
Method: Incubation of EM164 antibody (50-100 nM) in 100 μL cold FACS buffer (1 mg/mL BSA in Dulbecco's MEM medium) was performed using cells overexpressing IGF-I receptor and using cells overexpressing insulin receptor (2×10^5 cells/mL) in a round-bottom 96-well plate for 1 h. The cells were pelleted by centrifugation and washed with cold FACS buffer by gentle flicking, followed by incubation with goat-anti-mouse-IgG-antibody-FITC conjugate (100 μL; 10 μg/mL in FACS buffer) on ice for 1 h. The cells were pelleted, washed, and resuspended in 120 μL of 1% formaldehyde solution in PBS. The plate was analyzed using a FACSCalibur reader (BD Biosciences).

[1] = target: T2, SDS-denatured human IGF-I receptor (Homo sapiens, UniProt P08069); experiment: Western blot detection of SDS-denatured IGF-I receptor in MCF-7 lysates; assay type: binding; details: lysates from MCF-7 cells
T2 construct: human breast cancer MCF-7 cells, which expressed IGF-I receptor; endogenous in cells; host or cells: MCF-7 human breast cancer cells
Excerpt: A Western blot of the EM164 antibody immunoprecipitate was detected using a rabbit polyclonal anti-IGF-I receptor beta chain (C-terminus) antibody (Santa Cruz Biotechnology) and a goat-anti-rabbit-IgG-antibody-horseradish peroxidase conjugate, followed by washes and enhanced chemiluminescence (ECL) detection.

IGF-I receptor = target: T3, IGF-I receptor (Homo sapiens, UniProt P08069); experiment: Downregulation of IGF-I receptor in MCF-7 cells (Western blot); assay type: cell-based
T3 construct: human breast cancer MCF-7 cells, which expressed IGF-I receptor; endogenous in cells; host or cells: MCF-7 human breast cancer cells
Method: Therefore, the inhibition of binding of IGF-I and the displacement of bound IGF-I by EM164 antibody at both 4° C. and 37° C. in these short-term experiments may not be explained by the down-regulation of the receptor due to the binding of the EM164 antibody. The mechanism for the potent inhibition of the binding of IGF-I to IGF-I receptor and for the displacement of the pre-bound IGF-I by EM164 antibody is likely to be competition for binding, either through sharing of the binding site or through steric occlusion or through allosteric effects.

Akt and Erk1/2 = experiment: IGF-I receptor signaling in SaOS-2 cells (Western blots, phospho-Akt and phospho-Erk1/2); assay type: cell-based, human
HT-3 (cervical) cells = experiment: Growth and survival of HT-3 cells (MTT assay); assay type: cell-based, human; details: 5-10 μg/mL EM164, 10 ng/mL IGF-I
Method: (§1) Several human tumor cell lines were tested in serum-free conditions for their growth and survival response to IGF-I. These cell lines were treated with EM164 antibody in the presence of IGF-I, IGF-II, or serum, and their growth and survival responses were measured using an MTT assay after 2-4 days. Approximately 1500 cells were plated in a 96-well plate in regular medium with serum, which was replaced with serum-free medium the following day (either serum-free RPMI medium supplemented with transferrin and BSA, or phenol-red free medium as specified by Dufourny, B. et al., 1997, J. Biol. Chem., 272, 31163-31171). After one day of growth in serum-free medium, the cells were incubated with about 75 μL of 10 μg/mL antibody for 30 min.-3 h, followed by the addition of 25 μL of IGF-I (or IGF-II or serum) solution to obtain a final concentration of 10 ng/mL IGF-I, or 20 ng/mL IGF-II, or 0.04-10% serum. In some experiments, the cells were stimulated first with IGF-I for 15 min before the addition of EM164 antibody, or both IGF-I and EM164 antibody were added together. The cells were then allowed to grow for another 2-3 days. […] The medium was then removed and replaced by 100 μL DMSO, mixed, and the absorbance of the plate was measured at 545 nm.

HT-29 colon cancer cells = experiment: Growth and survival of HT-29 cells (MTT assay, colony formation); assay type: cell-based, human
Method: (§2) Several human tumor cell lines were tested in serum-free conditions for their growth and survival response to IGF-I. These cell lines were treated with EM164 antibody in the presence of IGF-I, IGF-II, or serum, and their growth and survival responses were measured using an MTT assay after 2-4 days. Approximately 1500 cells were plated in a 96-well plate in regular medium with serum, which was replaced with serum-free medium the following day (either serum-free RPMI medium supplemented with transferrin and BSA, or phenol-red free medium as specified by Dufourny, B. et al., 1997, J. Biol. Chem., 272, 31163-31171). After one day of growth in serum-free medium, the cells were incubated with about 75 μL of 10 μg/mL antibody for 30 min.-3 h, followed by the addition of 25 μL of IGF-I (or IGF-II or serum) solution to obtain a final concentration of 10 ng/mL IGF-I, or 20 ng/mL IGF-II, or 0.04-10% serum. In some experiments, the cells were stimulated first with IGF-I for 15 min before the addition of EM164 antibody, or both IGF-I and EM164 antibody were added together. The cells were then allowed to grow for another 2-3 days. A solution of MTT (3-(4,5)-dimethylthiazol-2-yl)-2,5-diphenyltetrazolium bromide; 25 μL of a 5 mg/mL solution in PBS) was then added and the cells were returned to the incubator for 2-3 h. The medium was then removed and replaced by 100 μL DMSO, mixed, and the absorbance of the plate was measured at 545 nm.

[2] = test system: Calu-6 non-small cell lung cancer cells; experiment: Growth and survival of Calu-6 cells (MTT assay); assay type: cell-based, human
Method: as §2

NCI-H596 cells = experiment: Growth and survival of NCI-H596 cells (MTT assay); assay type: cell-based, human
Method: as §2

A 549 cells = experiment: Growth and survival of A 549 cells (MTT assay); assay type: cell-based, human; details: 5-10 μg/mL EM164, 10 ng/mL IGF-I
Method: as §1

SK-Mel-37 cells = experiment: Growth and survival of SK-Mel-37 cells (MTT assay); assay type: cell-based, human; details: 5-10 μg/mL EM164, 10 ng/mL IGF-I
Method: as §1

A 431 (epidermoid) cells = experiment: Growth and survival of A 431 cells (MTT assay); assay type: cell-based, human
Method: as §2

[3] = test system: NCI-H838 lung cancer cells; experiment: Apoptosis: caspase-cleaved cytokeratin CK18 in NCI-H838 cells; assay type: cell-based, human; details: IGF-I or serum, presence vs absence of EM164, 1 day
Method: For measurement of apoptosis, cleavage of the cytokeratin CK18 protein by caspase was measured in NCI-H838 lung cancer cells incubated with IGF-I or serum in the presence or absence of EM164 for 1 day (FIG. 26).

[4] = test system: Human non-small cell lung cancer Calu-6 xenografts; assay type: in vivo
Excerpt: Human non-small cell lung cancer Calu-6 xenografts were established in immunodeficient mice by subcutaneous injections of 1×10^7 Calu-6 cells.

[5] = 5-10 μg/mL EM164, 10 ng/mL IGF-I
[6] = 5-10 μg/mL EM164, MTT or colony formation assay

B1: EM164: murine anti-IGF-I receptor monoclonal antibody, IgG1 with kappa light chain, hybridoma ATCC PTA-4457; heavy SEQ ID NO:7, light SEQ ID NO:8 (antibody)
heavy: QVQLQQSGAELVKPGASVKLSCKASGYTFTSYWMHWVKQRPGQGLEWIGEINPSNGRTNYNEKFKRKATLTVDKSSSTAYMQLSSLTSEDSAVYYFARGRPDYYGSSKWYFDVWGAGTTVTVSS
light: DVLMTQTPLSLPVSLGDQASISCRSSQSIVHSNVNTYLEWYLQKPGQSPKLLIYKVSNRFSGVPDRFSGSGSGTDFTLRISRVEAEDLGIYYCFQGSHVPPTFGGGTKLEIKR
modifications: antibody heavy chain; antibody light chain
fluorescence shift (FACS) (human insulin receptor): insignificant shift | detection of SDS-denatured human IGF-I receptor in Western blots [1]: did not detect | downregulation of the IGF-I receptor (IGF-I receptor; 4° C. for 2 h (or 37° C. for 30 min)): did not result in a significant downregulation | downregulation of the IGF-I receptor (IGF-I receptor; 37° C. for 2 h): 25% | EGF-stimulated phosphorylation of Erk1/2 (Akt and Erk1/2): did not inhibit | intracellular IGF-I receptor signaling (Akt and Erk1/2): almost completely inhibited | activation of Akt and Erk1/2 (Akt and Erk1/2; IGF-I stimulated): inhibited in a dose-dependent manner | Inhibition by EM164 antibody of IGF-I-stimulated growth in serum-free medium (HT-3 (cervical) cells): 70-90% | colony size of HT29 colon cancer cells (HT-29 colon cancer cells): greatly reduced | Inhibition by EM164 antibody of IGF-I-stimulated growth in serum-free medium (HT-29 colon cancer cells; HT-29, 5-10 μg/mL EM164, 10 ng/mL IGF-I): 60% | % Inhibition by EM164 antibody of Growth/survival of cells in 1.25-10% serum (HT-29 colon cancer cells; HT-29, 5-10 μg/mL EM164, MTT or colony formation assay): Yes | Inhibition by EM164 antibody of IGF-I-stimulated growth in serum-free medium [2, 5]: 85% | % Inhibition by EM164 antibody of Growth/survival of cells in 1.25-10% serum [2, 6]: Yes | Inhibition by EM164 antibody of IGF-I-stimulated growth in serum-free medium (NCI-H596 cells; [5]): 100% | % Inhibition by EM164 antibody of Growth/survival of cells in 1.25-10% serum (NCI-H596 cells; [6]): Weakly | Inhibition by EM164 antibody of IGF-I-stimulated growth in serum-free medium (A 549 cells): 80% | Inhibition by EM164 antibody of IGF-I-stimulated growth in serum-free medium (SK-Mel-37 cells): 85% | Inhibition by EM164 antibody of IGF-I-stimulated growth in serum-free medium (A 431 (epidermoid) cells; [5]): 85% | % Inhibition by EM164 antibody of Growth/survival of cells in 1.25-10% serum (A 431 (epidermoid) cells; [6]): Yes | caspase-cleaved CK18 levels [3]: greater cleaved CK18 levels | toxicity based on weights of the mice ([4]; EM164 6 injections of 0.8 mg/mouse, i.v.): No toxicity | growth of tumors ([4]; established 100 mm^3 Calu-6 xenografts, EM164 0.8 mg/mouse i.v. x6, taxol 15 mg/kg i.p. x5): significantly slowed

Reference: patent US8034904B2, “Anti-IGF-I receptor antibody” (Immunogen Inc., priority 2002, dated 2011)
